# In PMC11128890 (Frontiers in Cell and Developmental Biology, 2024):
# T1: KDR domain 1 (D1) fused to GST
# T1 chain: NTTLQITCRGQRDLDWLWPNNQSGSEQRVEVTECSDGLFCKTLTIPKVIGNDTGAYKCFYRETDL
# T2: KDR domain 1 (D1), His-tagged
# T2 construct: first IgG-like domain (D1) of VEGFR2/KDR, amplified from full-length KDR cDNA; Cloned into the BamHI/EcoRI site of pET28a; also called KDR D1; KDR D1 (His-tagged)
# T2 chain: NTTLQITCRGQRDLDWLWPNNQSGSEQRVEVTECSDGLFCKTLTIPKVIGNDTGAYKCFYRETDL
# T3: KDR domain 1 (D1), His-tagged
# T3 chain: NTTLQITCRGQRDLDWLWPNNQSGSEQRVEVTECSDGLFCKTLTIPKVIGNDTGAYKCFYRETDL
# Columns and labels:
# [1] = molecular target: KDR domain 1 (D1) fused to GST; experiment: ELISA-type binding assay; details: GST-KDR-D1 100 μg/mL, read off a plot
# [2] = molecular target: VEGFR2/KDR (Homo sapiens) (UniProt P35968); details: cited from earlier work
# [3] = molecular target: T1, KDR domain 1 (D1) fused to GST; experiment: ELISA-type binding assay; details: chain shown with the change, read off a plot
# [4] = molecular target: T4, recombinant soluble integrin αvβ3 (UniProt P06756 31-987; P05106 27-718); experiment: ELISA; HBD, NTD or HBD mutants coated on 96-well plates, blocked with BSA; soluble αvβ3 (1 μg/mL) in HEPES-Tyrode buffer + 1 mM MnCl2, 1 h room temperature; bound αvβ3 detected with anti-β3 mAb AV10; binding to HBD inhibited by mAb 7E3 and cation-dependent; details: both partners purified
# T4 construct: integrin αv subunit, soluble expression construct; integrin β3 subunit, soluble expression construct; PDB 1L5G is the αvβ3 structure used for docking, not necessarily the same limits; also called soluble αvβ3; source: CHO K1 cells, soluble αv and β3 expression constructs, purified (Ni-NTA)
# [5] = molecular target: T2, KDR domain 1 (D1), His-tagged; experiment: SPR; KDR D1 (His-tagged) immobilised on CM5 chip by amine coupling; HBD injected at 50 μL/min for 1.8 min; HBS-EP buffer (0.01 M HEPES pH 7.4, 0.15 M NaCl, 3 mM EDTA, 0.0005% P20); details: both partners purified
# [6] = molecular target: T3, KDR domain 1 (D1), His-tagged; experiment: SPR
# [7] = molecular target: T4, recombinant soluble integrin αvβ3; experiment: SPR; soluble αvβ3 (His-tagged) immobilised on CM5 chip by amine coupling; HBD injected at 50 μL/min for 1.8 min; HBS-P buffer (0.01 M HEPES pH 7.4, 0.15 M NaCl, 0.0005% P20) with 1 mM Mn2+; details: both partners purified
# [8] = HBD at 10 µg/ml, parent: est. 0.93
# [9] = HBD coated at 20 µg/ml (highest point of the curve), parent: est. 1.4
# [10] = GST-KDR-D1 100 μg/mL, parent: est. 0.51
# T4 sequence (P06756 31-987, chain 1 of 2): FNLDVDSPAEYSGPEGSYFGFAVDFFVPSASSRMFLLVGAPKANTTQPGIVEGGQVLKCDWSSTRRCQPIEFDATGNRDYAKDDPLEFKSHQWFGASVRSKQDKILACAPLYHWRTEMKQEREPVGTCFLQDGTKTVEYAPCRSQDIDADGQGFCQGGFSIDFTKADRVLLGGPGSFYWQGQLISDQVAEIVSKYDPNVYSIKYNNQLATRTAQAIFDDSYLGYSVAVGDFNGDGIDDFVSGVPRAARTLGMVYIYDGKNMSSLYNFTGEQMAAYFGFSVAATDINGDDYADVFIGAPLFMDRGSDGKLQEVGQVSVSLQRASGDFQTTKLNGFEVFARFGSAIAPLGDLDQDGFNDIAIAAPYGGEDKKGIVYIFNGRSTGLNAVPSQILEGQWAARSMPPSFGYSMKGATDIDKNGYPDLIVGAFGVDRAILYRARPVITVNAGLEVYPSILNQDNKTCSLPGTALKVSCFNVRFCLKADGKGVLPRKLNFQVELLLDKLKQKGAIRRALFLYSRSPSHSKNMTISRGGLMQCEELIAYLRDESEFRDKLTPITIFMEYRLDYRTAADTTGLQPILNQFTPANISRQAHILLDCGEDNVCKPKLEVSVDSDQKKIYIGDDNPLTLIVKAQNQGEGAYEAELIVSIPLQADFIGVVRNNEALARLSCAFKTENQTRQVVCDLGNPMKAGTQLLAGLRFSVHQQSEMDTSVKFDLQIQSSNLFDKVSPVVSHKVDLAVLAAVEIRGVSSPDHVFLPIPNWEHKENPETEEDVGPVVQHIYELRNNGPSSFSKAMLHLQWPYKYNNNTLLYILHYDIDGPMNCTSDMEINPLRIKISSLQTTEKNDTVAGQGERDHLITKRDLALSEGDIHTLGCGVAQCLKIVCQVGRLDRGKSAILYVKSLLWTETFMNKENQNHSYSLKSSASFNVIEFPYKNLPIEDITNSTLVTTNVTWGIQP
# T4 sequence (P05106 27-718, chain 2 of 2): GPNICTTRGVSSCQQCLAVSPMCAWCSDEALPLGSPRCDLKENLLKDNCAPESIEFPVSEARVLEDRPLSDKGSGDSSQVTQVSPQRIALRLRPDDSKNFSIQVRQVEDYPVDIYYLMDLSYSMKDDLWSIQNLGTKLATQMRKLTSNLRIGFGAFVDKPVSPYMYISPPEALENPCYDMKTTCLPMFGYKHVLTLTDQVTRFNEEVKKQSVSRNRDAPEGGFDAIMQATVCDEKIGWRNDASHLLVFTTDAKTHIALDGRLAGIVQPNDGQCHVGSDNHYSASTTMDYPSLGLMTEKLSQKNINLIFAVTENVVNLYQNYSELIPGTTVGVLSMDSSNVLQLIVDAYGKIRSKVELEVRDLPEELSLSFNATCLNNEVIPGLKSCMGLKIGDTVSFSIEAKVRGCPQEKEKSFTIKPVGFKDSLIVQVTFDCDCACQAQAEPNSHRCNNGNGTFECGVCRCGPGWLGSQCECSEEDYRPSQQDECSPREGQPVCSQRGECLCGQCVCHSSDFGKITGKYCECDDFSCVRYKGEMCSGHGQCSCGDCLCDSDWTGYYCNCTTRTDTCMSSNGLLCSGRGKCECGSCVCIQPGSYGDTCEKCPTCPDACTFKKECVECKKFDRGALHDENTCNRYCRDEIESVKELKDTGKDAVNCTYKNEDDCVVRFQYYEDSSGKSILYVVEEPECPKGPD
# VEGFR2/KDR (Homo sapiens), sequence (P35968 20-1356): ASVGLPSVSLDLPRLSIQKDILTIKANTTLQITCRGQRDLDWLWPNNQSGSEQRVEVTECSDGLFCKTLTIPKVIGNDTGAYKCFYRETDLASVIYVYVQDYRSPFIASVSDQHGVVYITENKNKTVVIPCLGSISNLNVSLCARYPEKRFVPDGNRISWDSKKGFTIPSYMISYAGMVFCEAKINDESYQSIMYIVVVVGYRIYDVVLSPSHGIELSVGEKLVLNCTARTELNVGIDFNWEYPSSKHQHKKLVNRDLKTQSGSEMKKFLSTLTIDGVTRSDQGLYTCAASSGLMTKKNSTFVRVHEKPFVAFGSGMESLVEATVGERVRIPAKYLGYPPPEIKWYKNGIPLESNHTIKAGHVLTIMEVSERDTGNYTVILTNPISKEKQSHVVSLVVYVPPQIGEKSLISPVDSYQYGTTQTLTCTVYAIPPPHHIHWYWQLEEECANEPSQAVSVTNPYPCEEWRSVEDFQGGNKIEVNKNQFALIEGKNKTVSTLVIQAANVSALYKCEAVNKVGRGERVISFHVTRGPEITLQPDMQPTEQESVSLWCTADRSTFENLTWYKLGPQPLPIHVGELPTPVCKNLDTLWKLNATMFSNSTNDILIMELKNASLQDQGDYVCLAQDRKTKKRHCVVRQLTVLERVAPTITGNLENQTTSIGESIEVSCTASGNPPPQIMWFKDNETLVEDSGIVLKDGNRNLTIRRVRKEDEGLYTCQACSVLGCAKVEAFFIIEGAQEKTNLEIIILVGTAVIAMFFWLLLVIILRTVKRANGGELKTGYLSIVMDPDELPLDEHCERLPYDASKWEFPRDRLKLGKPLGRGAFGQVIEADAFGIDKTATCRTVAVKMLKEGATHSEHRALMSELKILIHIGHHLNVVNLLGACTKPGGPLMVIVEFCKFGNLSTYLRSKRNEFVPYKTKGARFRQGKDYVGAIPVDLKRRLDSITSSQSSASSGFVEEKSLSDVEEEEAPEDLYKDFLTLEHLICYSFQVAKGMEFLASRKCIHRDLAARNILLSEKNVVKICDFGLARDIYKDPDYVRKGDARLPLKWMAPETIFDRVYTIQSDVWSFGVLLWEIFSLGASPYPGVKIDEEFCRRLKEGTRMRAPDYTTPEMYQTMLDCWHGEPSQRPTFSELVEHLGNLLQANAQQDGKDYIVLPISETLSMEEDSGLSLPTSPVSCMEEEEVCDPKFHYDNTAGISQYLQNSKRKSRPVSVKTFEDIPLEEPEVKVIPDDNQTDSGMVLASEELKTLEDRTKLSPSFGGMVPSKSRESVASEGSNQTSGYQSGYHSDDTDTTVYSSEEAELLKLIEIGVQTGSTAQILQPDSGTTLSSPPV
# VEGF165, sequence (P15692 whole entry): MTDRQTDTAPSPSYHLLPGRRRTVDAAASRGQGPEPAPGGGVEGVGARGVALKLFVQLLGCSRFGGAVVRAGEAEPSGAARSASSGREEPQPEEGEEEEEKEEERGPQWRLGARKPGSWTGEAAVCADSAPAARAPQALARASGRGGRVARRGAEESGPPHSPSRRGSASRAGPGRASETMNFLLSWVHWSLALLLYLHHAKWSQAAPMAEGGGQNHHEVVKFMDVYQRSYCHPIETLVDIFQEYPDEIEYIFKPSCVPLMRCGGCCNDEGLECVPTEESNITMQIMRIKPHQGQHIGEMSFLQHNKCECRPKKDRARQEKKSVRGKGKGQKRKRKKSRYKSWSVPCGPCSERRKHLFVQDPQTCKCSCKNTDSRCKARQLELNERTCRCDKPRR
molecule,measurement,setting,value
"VEGF165 heparin-binding domain (HBD), wild type K145E",response,[1]; [8],0.74 OD450
same,response,[1]; [9],1.1 OD450
"VEGF165 heparin-binding domain (HBD), wild type K140E",response,[1]; [8],0.73 OD450
same,response,[1]; [9],0.89 OD450
VEGF165 (from UniProt P15692),Kd,[2],0.14 nM
"VEGF165 heparin-binding domain (HBD), wild type K136E",response,[1]; [8],1 OD450
"PCGPCSERREHLFVQDPQTCKCSCKNTDSRCKARQLELNERTCRCDKPRR [VEGF165 heparin-binding domain (HBD), wild type K125E]",response,[3]; [10],0.31 OD450
"PCGPCSEEEEHLFVQDPQTCKCSCKNTDSRCKARQLELNERTCRCDKPRR [VEGF165 heparin-binding domain (HBD), wild type R123E; R124E; K125E]",response,[3]; [10],0.06 OD450
same,response,"[3]; HBD at 10 µg/ml, GST-KDR-D1 100 μg/mL, parent: est. 0.93",0.14 OD450
same,response,"[3]; HBD coated at 20 µg/ml (highest point of the curve), GST-KDR-D1 100 μg/mL, parent: est. 1.4",0.16 OD450
"PCGPCSEERKHLFVQDPQTCKCSCKNTDSRCKARQLELNERTCRCDKPRR [VEGF165 heparin-binding domain (HBD), wild type R123E]",response,[3]; [10],0.14 OD450
"PCGPCSERRKHLFVQDPQTCKCSCANTDSACKAAQLELNERTCRCDKPRR (domain or fragment, human, the substitutions are to be applied) [VEGF165 HBD K140A/R145A/R149A mutant]",binding result,[4],binds
"PCGPCSEAAAHLFVQDPQTCKCSCANTDSACKAAQLELNERTCRCDKPRR [VEGF165 heparin-binding domain (HBD), wild type R123A; R124A; K125A; K140A; R145A; R149A]",response,"[3]; left graph (dose-response), HBD coated at 10 µg/ml, soluble GST-tagged KDR fragment 100 μg/mL, parent: est. 0.77",0.1 OD450
same,response,"[3]; left graph (dose-response), HBD coated at 20 µg/ml, soluble GST-tagged KDR fragment 100 μg/mL, parent: est. 1.2",0.16 OD450
same,response,"[3]; right graph (bar chart), 20 µg/ml, n=3, soluble GST-tagged KDR fragment 100 μg/mL, parent: est. 1.4",0.13 OD450
"PCGPCSEREKHLFVQDPQTCKCSCKNTDSRCKARQLELNERTCRCDKPRR [VEGF165 heparin-binding domain (HBD), wild type R124E]",response,[3]; [10],0.2 OD450
"PCGPCSEAAAHLFVQDPQTCKCSCKNTDSRCKARQLELNERTCRCDKPRR (domain or fragment, human, the substitutions are to be applied) [VEGF165 HBD R123A/R124A/K125A mutant]",binding result,[4],binds
"PCGPCSERRKHLFVQDPQTCKCSCKNTDSRCKARQLELNERTCRCDKPRR (domain or fragment, human, Cloned into the BamHI/EcoRI site of pET28a; PDB 2VGH is the HBD structure used for docking; also called VEGF165-HBD; VEGF165 HBD) [VEGF165 heparin-binding domain (HBD), wild type]",Kd,[5],~100 nM
same,Kd,[6],109 nM
same,Kd,[7],470 nM
